Measured values from paper PMC5645029 (Journal of medicinal chemistry, 2017).
Non-standard residues stand in square brackets, D forms with d. Residues, ends and D or L forms follow the SMILES beside them.

Assays:
mMC5R [1] = target: T1, mMC5R (Mus musculus, UniProt P41149)
[2] = target: mouse melanocortin-1 receptor (mouse) (UniProt Q01727)
[3] = target: mouse melanocortin-3 receptor (mouse) (UniProt P33033)
[4] = target: mouse melanocortin-4 receptor (mouse) (UniProt P56450)
mMC1R = mMC1R (Mus musculus, UniProt Q01727); experiment: AlphaScreen cAMP assay, agonist activity; settings: up to 100 μM concentrations
mMC5R [5] = target: T1, mMC5R; experiment: cell-based
mMC3R = mMC3R (Mus musculus, UniProt P33033); experiment: AlphaScreen cAMP assay, agonist activity; settings: up to 100 μM concentrations
mMC4R = mMC4R (Mus musculus, UniProt P56450); experiment: AlphaScreen cAMP assay, agonist activity; settings: up to 100 μM concentrations
mMC4R, sequence (P56450 whole entry): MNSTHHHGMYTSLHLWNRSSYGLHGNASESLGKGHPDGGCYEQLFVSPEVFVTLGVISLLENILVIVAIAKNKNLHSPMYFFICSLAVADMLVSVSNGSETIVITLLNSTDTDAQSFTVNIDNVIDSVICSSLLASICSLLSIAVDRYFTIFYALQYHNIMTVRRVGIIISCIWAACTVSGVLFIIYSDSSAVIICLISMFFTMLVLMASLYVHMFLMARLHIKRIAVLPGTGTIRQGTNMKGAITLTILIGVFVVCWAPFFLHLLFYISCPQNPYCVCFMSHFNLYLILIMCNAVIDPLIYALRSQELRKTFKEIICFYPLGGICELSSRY

T1 sequence (P41149 whole entry): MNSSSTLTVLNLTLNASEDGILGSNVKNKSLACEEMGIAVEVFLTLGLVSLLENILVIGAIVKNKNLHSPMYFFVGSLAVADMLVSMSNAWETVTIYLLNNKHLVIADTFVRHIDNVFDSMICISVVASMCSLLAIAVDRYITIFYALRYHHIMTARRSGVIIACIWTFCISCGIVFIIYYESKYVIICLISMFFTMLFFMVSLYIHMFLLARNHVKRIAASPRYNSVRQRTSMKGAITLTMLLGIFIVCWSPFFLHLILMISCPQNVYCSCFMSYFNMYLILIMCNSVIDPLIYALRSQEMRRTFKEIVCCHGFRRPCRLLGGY
mouse melanocortin-4 receptor (mouse), sequence (P56450 whole entry): as the sequence (P56450 whole entry) above
mouse melanocortin-3 receptor (mouse), sequence (P33033 whole entry): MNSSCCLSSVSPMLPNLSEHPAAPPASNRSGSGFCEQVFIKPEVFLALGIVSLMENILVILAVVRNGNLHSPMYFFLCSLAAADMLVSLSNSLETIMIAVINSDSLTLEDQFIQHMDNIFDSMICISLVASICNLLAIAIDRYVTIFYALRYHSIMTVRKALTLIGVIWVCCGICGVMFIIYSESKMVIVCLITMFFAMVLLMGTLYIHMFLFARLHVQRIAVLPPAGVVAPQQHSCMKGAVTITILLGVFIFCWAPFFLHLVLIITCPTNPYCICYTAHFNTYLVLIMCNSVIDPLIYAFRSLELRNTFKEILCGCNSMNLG
mMC3R, sequence (P33033 whole entry): as above
mMC1R, sequence (Q01727 whole entry): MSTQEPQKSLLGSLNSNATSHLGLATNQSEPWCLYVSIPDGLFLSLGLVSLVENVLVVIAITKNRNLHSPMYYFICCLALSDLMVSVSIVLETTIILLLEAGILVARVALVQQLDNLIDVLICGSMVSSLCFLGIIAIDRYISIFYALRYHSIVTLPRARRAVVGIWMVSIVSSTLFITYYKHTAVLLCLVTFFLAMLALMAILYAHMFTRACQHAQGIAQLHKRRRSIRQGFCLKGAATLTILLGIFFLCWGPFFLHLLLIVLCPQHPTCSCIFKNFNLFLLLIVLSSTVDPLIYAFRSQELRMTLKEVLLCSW
mouse melanocortin-1 receptor (mouse), sequence (Q01727 whole entry): as above

| Molecule | agonist EC50 (cAMP AlphaScreen, HEK293 cells stably expressing the receptor) [2] | agonist EC50 (cAMP AlphaScreen, HEK293 cells stably expressing the receptor) [3] | agonist EC50 (cAMP AlphaScreen, HEK293 cells stably expressing the receptor) [4] | also measured |
| --- | --- | --- | --- | --- |
| C[C@@H]1NC(=O)[C@H](Cc2ccccc2)NC(=O)[C@H](Cc2ccccc2)NC(=O)[C@H](Cc2ccccc2)NC(=O)[C@H](CCCNC(=N)N)NC(=O)[C@@H]2CCCN2C(=O)[C@H]2CCCN2C(=O)[C@H](Cc2ccccc2)NC1=O [Peptide 14, c[Pro-Arg-Phe-Phe-Phe-Ala-Phe-DPro]] |  |  |  | activity at the MC5R (in words) (mMC5R [1]): no activity |
| c[Pro-Arg-Phe-Phe-Abu-Ala-Phe-DPro] (peptide) | > 100 µM | > 100 µM | > 100 µM |  |
| C[C@@H]1NC(=O)[C@H](CC(N)=O)NC(=O)[C@H](Cc2ccccc2)NC(=O)[C@H](Cc2ccccc2)NC(=O)[C@H](CCCNC(=N)N)NC(=O)[C@@H]2CCCN2C(=O)[C@H]2CCCN2C(=O)[C@H](C)NC1=O [Peptide 24, c[Pro-Arg-Phe-Phe-Asn-Ala-Ala-DPro]] (cyclo(RFFNAA[dP]P)) |  |  |  | agonist activity at the MC1R (in words) (mMC1R): no agonist activity |
| c[Pro-Arg-Phe-Phe-Dap-Ala-Phe-DPro] (peptide) |  | > 100 µM | > 100 µM |  |
| C[C@@H]1NC(=O)[C@@H](CN)NC(=O)[C@H](Cc2ccccc2)NC(=O)[C@H](Cc2ccccc2)NC(=O)[C@H](CCCNC(=N)N)NC(=O)[C@@H]2CCCN2C(=O)[C@H]2CCCN2C(=O)[C@H](Cc2ccccc2)NC1=O [Peptide 9, c[Pro-Arg-Phe-Phe-DDap-Ala-Phe-DPro]] |  |  |  | EC50 (mMC5R [5]): 0.11 µM; agonist activity at the MC1R (in words) (mMC1R): no agonist activity; agonist activity at the MC3R (in words) (mMC3R): no agonist activity; agonist activity at the MC4R (in words) (mMC4R): no agonist activity |
| CC(C)C[C@@H]1NC(=O)[C@H](CC(N)=O)NC(=O)[C@H](Cc2ccccc2)NC(=O)[C@H](Cc2ccccc2)NC(=O)[C@H](CCCNC(=N)N)NC(=O)[C@@H]2CCCN2C(=O)[C@H]2CCCN2C(=O)[C@H](Cc2ccccc2)NC1=O [Peptide 22, c[Pro-Arg-Phe-Phe-Asn-Leu-Phe-DPro]] |  |  |  | activity at the MC5R (in words) (mMC5R [1]): no activity |
| C[C@@H]1NC(=O)[C@H](CO)NC(=O)[C@H](Cc2ccccc2)NC(=O)[C@H](Cc2ccccc2)NC(=O)[C@H](CCCNC(=N)N)NC(=O)[C@@H]2CCCN2C(=O)[C@H]2CCCN2C(=O)[C@H](Cc2ccccc2)NC1=O [Peptide 5, c[Pro-Arg-Phe-Phe-Ser-Ala-Phe-DPro]] |  |  |  | EC50 (mMC5R [5]): 0.14 µM; agonist activity at the MC1R (in words) (mMC1R): No agonist activity; agonist activity at the MC3R (in words) (mMC3R): No agonist activity; agonist activity at the MC4R (in words) (mMC4R): No agonist activity |
| c[Pro-Arg-Phe-Phe-DDap-Ala-Phe-DPro] (peptide) | > 100 µM | > 100 µM | > 100 µM |  |
| N=C(N)NCCC[C@@H]1NC(=O)[C@@H]2CCCN2C(=O)[C@H]2CCCN2C(=O)[C@H](Cc2ccccc2)NC(=O)[C@H](CO)NC(=O)[C@H](CC(N)=O)NC(=O)[C@H](Cc2ccccc2)NC(=O)[C@H](Cc2ccccc2)NC1=O [Peptide 21, c[Pro-Arg-Phe-Phe-Asn-Ser-Phe-DPro]] (cyclo(RFFNSF[dP]P)) |  |  |  | agonist activity at the MC1R (in words) (mMC1R): did not possess agonist activity; agonist activity at the MC3R (in words) (mMC3R): did not possess agonist activity; agonist activity at the MC4R (in words) (mMC4R): did not possess agonist activity |
| N=C(N)NCCC[C@@H]1NC(=O)[C@@H]2CCCN2C(=O)[C@H]2CCCN2C(=O)[C@H](Cc2ccccc2)NC(=O)[C@H](CCCCN)NC(=O)[C@H](CC(N)=O)NC(=O)[C@H](Cc2ccccc2)NC(=O)[C@H](Cc2ccccc2)NC1=O [Peptide 18, c[Pro-Arg-Phe-Phe-Asn-Lys-Phe-DPro]] |  |  |  | activity at the MC5R (in words) (mMC5R [1]): partially stimulated |
| C[C@@H]1NC(=O)[C@H](Cc2c[nH]c3ccccc23)NC(=O)[C@H](Cc2ccccc2)NC(=O)[C@H](Cc2ccccc2)NC(=O)[C@H](CCCNC(=N)N)NC(=O)[C@@H]2CCCN2C(=O)[C@H]2CCCN2C(=O)[C@H](Cc2ccccc2)NC1=O [Peptide 15, c[Pro-Arg-Phe-Phe-Trp-Ala-Phe-DPro]] (cyclo(RFFWAF[dP]P)) |  |  |  | EC50 (mMC5R [5]): 0.15 µM |
| cyclo(PRFFNDF[dP]) (SMILES N=C(N)NCCC[C@@H]1NC(=O)[C@@H]2CCCN2C(=O)[C@H]2CCCN2C(=O)[C@H](Cc2ccccc2)NC(=O)[C@H](CC(=O)O)NC(=O)[C@H](CC(N)=O)NC(=O)[C@H](Cc2ccccc2)NC(=O)[C@H](Cc2ccccc2)NC1=O) [c[Pro-Arg-Phe-Phe-Asn-Asp-Phe-DPro]] |  | > 100 µM | > 100 µM |  |
| cyclo(PRFFNKF[dP]) (SMILES N=C(N)NCCC[C@@H]1NC(=O)[C@@H]2CCCN2C(=O)[C@H]2CCCN2C(=O)[C@H](Cc2ccccc2)NC(=O)[C@H](CCCCN)NC(=O)[C@H](CC(N)=O)NC(=O)[C@H](Cc2ccccc2)NC(=O)[C@H](Cc2ccccc2)NC1=O) [c[Pro-Arg-Phe-Phe-Asn-Lys-Phe-DPro]] |  |  | > 100 µM |  |
| cyclo(PRFFNSF[dP]) (SMILES N=C(N)NCCC[C@@H]1NC(=O)[C@@H]2CCCN2C(=O)[C@H]2CCCN2C(=O)[C@H](Cc2ccccc2)NC(=O)[C@H](CO)NC(=O)[C@H](CC(N)=O)NC(=O)[C@H](Cc2ccccc2)NC(=O)[C@H](Cc2ccccc2)NC1=O) [c[Pro-Arg-Phe-Phe-Asn-Ser-Phe-DPro]] | > 100 µM | > 100 µM | > 100 µM |  |
| cyclo(PRFFNGF[dP]) (SMILES N=C(N)NCCC[C@@H]1NC(=O)[C@@H]2CCCN2C(=O)[C@H]2CCCN2C(=O)[C@H](Cc2ccccc2)NC(=O)CNC(=O)[C@H](CC(N)=O)NC(=O)[C@H](Cc2ccccc2)NC(=O)[C@H](Cc2ccccc2)NC1=O) [c[Pro-Arg-Phe-Phe-Asn-Gly-Phe-DPro]] | > 100 µM | > 100 µM | > 100 µM |  |
| cyclo(PRFFNAA[dP]) (SMILES C[C@@H]1NC(=O)[C@H](CC(N)=O)NC(=O)[C@H](Cc2ccccc2)NC(=O)[C@H](Cc2ccccc2)NC(=O)[C@H](CCCNC(=N)N)NC(=O)[C@@H]2CCCN2C(=O)[C@H]2CCCN2C(=O)[C@H](C)NC1=O) [c[Pro-Arg-Phe-Phe-Asn-Ala-Ala-DPro]] | > 100 µM | > 100 µM | > 100 µM |  |
| cyclo(PRFFAAF[dP]) [c[Pro-Arg-Phe-Phe-Ala-Ala-Phe-DPro]] | > 100 µM | > 100 µM | > 100 µM |  |
| cyclo(PRFFSAF[dP]) [c[Pro-Arg-Phe-Phe-Ser-Ala-Phe-DPro]] | > 100 µM | > 100 µM | > 100 µM |  |
| cyclo(PRFFTAF[dP]) (SMILES C[C@@H]1NC(=O)[C@H]([C@@H](C)O)NC(=O)[C@H](Cc2ccccc2)NC(=O)[C@H](Cc2ccccc2)NC(=O)[C@H](CCCNC(=N)N)NC(=O)[C@@H]2CCCN2C(=O)[C@H]2CCCN2C(=O)[C@H](Cc2ccccc2)NC1=O) [c[Pro-Arg-Phe-Phe-Thr-Ala-Phe-DPro]] | > 100 µM | > 100 µM | > 100 µM |  |
| cyclo(PRFFDAF[dP]) [c[Pro-Arg-Phe-Phe-Asp-Ala-Phe-DPro]] | > 100 µM | > 100 µM | > 100 µM |  |
| cyclo(PRFFEAF[dP]) [c[Pro-Arg-Phe-Phe-Glu-Ala-Phe-DPro]] | 20.5 µM | > 100 µM | > 100 µM |  |
| cyclo(PRFFHAF[dP]) (SMILES C[C@@H]1NC(=O)[C@H](Cc2c[nH]cn2)NC(=O)[C@H](Cc2ccccc2)NC(=O)[C@H](Cc2ccccc2)NC(=O)[C@H](CCCNC(=N)N)NC(=O)[C@@H]2CCCN2C(=O)[C@H]2CCCN2C(=O)[C@H](Cc2ccccc2)NC1=O) [c[Pro-Arg-Phe-Phe-His-Ala-Phe-DPro]] | > 100 µM | > 100 µM | > 100 µM |  |
| cyclo(PRFFLAF[dP]) (SMILES CC(C)C[C@@H]1NC(=O)[C@H](Cc2ccccc2)NC(=O)[C@H](Cc2ccccc2)NC(=O)[C@H](CCCNC(=N)N)NC(=O)[C@@H]2CCCN2C(=O)[C@H]2CCCN2C(=O)[C@H](Cc2ccccc2)NC(=O)[C@H](C)NC1=O) [c[Pro-Arg-Phe-Phe-Leu-Ala-Phe-DPro]] | > 100 µM | > 100 µM | > 100 µM |  |
| cyclo(PRFFVAF[dP]) [c[Pro-Arg-Phe-Phe-Val-Ala-Phe-DPro]] |  | > 100 µM | > 100 µM |  |
